Biological target: mouse PKA-Cα (Mus musculus, UniProt P05132)
Test: Surface plasmon resonance
Details: SPR; mouse PKA-Cα; ATP and MgCl2 present

binding to PKA-Cα: no PKA-C binding was observed
B1: SMO pCT WRR mutant: SMO pCT harboring the WRR mutation, GST-tagged for SPR (protein)
chain: KRIKKSKMIAKAFSKRRELLQNPGQELSFSMHTVSHDGPVAGLAFDLNEPSADVSSAAAQHVTKMVAAAGAILPQDVSVTPVATPVPPEEQAN
modifications: left off: GST, end not stated, kept

— article PMC9696579 (Nature structural & molecular biology, 2022)
